Assay: yeast display, Sf9 membrane polyspecificity reagent, FACS + sequencing; frameworks hold sequencing errors
Outline: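 Polyreactivity labels are assigned by the sorting gate from which each nanobody was recovered. The gates were low and high (top ~1%), set on anti-HA fluorescence for expression and streptavidin fluorescence for reagent binding. Before sorting, galactose-induced (36–48 hours) yeast display cells were stained for 1 hour at 4 °C with 10% biotinylated, detergent-solubilized Sf9 membrane reagent.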

| Sequence | polyreactivity (PSR sort gate) |
| --- | --- |
| QVQLVESGGGLVQAGRSLRLICAASGSTFYVNAMGWYRQAPGKEREFVAAIRWPGGSTYYADSVKWRFTISRDNAKNTFYVQMNSLKPEDTAVFYCAARIKYRYVWGQGTQVTVSS | low polyreactivity |
| QVQLVESGGGLVQAGRSLRLNCAASGLTFYKYAMGWYRQAPGKERELVAAISYRGGSTYYADSVKGRFTISRDNAKNTVSLQLNSLKPEVTAVYYCAAGYPYGGDYWGQGTQVTVSS | high polyreactivity |
| QVQLVESGGGLVQAGRSLRLSCAASGFIFGHNAMGWSRQAPGKERELFAAIRSRGGSTYYADSVKGRFTISRDNAKNTVYLQMNSLKREDTAVYYCAADGAVVSSSRKFVYWGQGTQVTVSS | low polyreactivity |
| QVQLVESGGGLVQAGRSLRLSCAASGFTFAYYAMGWYRQAPGKERELVAAISRGGTSTYYADSVKGRFTISRDNAKNTVYLQMNSLKPEDTAVYYCNAVKVGYSLYDYWGQGTQVTVSS | high polyreactivity |
| QVQLVESGGGLVQAGRSLRLSCAASGFTFQSYDMGWYRQAPGKDRELVAAISWSGASTYYADSVKGRFTISRDNAKNTVYLQMNSLKPEDTAVYYCAAGEPTWWGYANDYWGQGTQVTVST | high polyreactivity |
| QVQLVESGGGLVQAGRSLRLSCAASGGLFQKYPMGWYRHAPGKERELVAAISGSGGRTYYADSVKGRFTISRDNAKNTVYLQMNTLKPEDTEVYYCAATLNRYGYDYWGQGTQVTVST | high polyreactivity |
| QVQLVESGGGLVQAGRSLRLSCAASGLTFLAYDMGWYRQAPGKVRQLVAAITGGGSTHYADSVKGRFTISRDNAKNTVYLQMTSLKPDDTAVSYCNADVYVYSVTSHYPSYRLDYWGHGTQVTVSS | high polyreactivity |
| QVQLVESGGGLVQAGRSLRLSCAASGRIFADYAMGWYRQAPGKERQLVAAITSGGTTYADSVKGRFTISRDNAKNTVYLQMNSLKPEDSAVYYCAAQGQGRTGGFGKGSTYGYWGQGTQVTVSS | low polyreactivity |
| QVQLVESGGGLVQAGRSLRLSCAASGRIFAQNAMGWYRQAPGKERELVAAISWGGGGTYYADSVKGRFTISRDNAKNTVYLQMNSLKPEDTAVYYCAADSPGFGAWDRYEYWGQGTQVTVSS | low polyreactivity |
| QVQLVESGGGLVQAGRSLRLSCAASGRIFCYYAMGWYRQAPGKERELVAAITRGGSTYYADSVKGRFTISRDNAKNTVYLQMNSLKPEDTAVYYCAATISGLVKYENDYWGQGTQVTVSS | low polyreactivity |
| QVQLVESGGGLVQAGRSLRLSCAASGRIFGPYTMGWYRQAPGKEREFVAAITRRGGSTYYADSVKGRFTISRDNAKNTGYLQRHSLKPEDTAVYYCAAVGQKRSLGYSWGQGTQVTVSS | low polyreactivity |
| QVQLVESGGGLVQAGRSLRLSCAASGRIFPRNVMGWYRQAPGKERELVAAISSRGTRTYYADSVKGRFTISRDNAKNSVYLQLYSLKPEDTAVYYCAADGPYEGYDYWGQGTQVTVSS | high polyreactivity |
| QVQLVESGGGLVQAGRSLRLSCAASGRIIYGYPMGWYRQAPGIERELVAAITATYYADSVKGRFTISRDNAKNTVYLQMNSLKPEDTAVYYCNAYLSPKQPLSPPDPTFEGGYWGQGTQVTVST | low polyreactivity |
| QVQLVESGGGLVQAGRSLRLSCAASGRTFARYAMGGYRQAPGKERELVAAINSGGSTNYADSVKGRFTISRDNAKNTDYLQMNSLKPEDTAVYYCAADSYWKWYIAYPYYWGQGTQVTVSS | high polyreactivity |
| QVQLVESGGGLVQAGRSLRLSCAASGRTFGANAMGWYRQAPGKERELVAAISYHGTRTYYADSVKGRFTISRDNAKNTVYLQMNSLKPEDTAVYYCAAVGKPGVYQEGDYWGQGTQVTVSS | high polyreactivity |
| QVQLVESGGGLVQAGRSLRLSCAASGRTFGTNAMGWYRQAPGKERELVAAISRRGGSTYYADSVKGRFTISRDNAKNTVYLQMNCLKPEDTAVYYCASDFWYYQYPYGGGGYWGQGTQVTVSS | low polyreactivity |

| Sequence | polyreactivity (PSR sort gate) |
| --- | --- |
| QVQLVESGGGLVQAGRSLRLSCAASGRTFPPYDMGWYRQAPGKERELVAAITSDGSTSYADSVKGRFTISRDNAKNTVYLQMNRLKPEDTAVYYCNAEYGYSFGYGYYWWFDYWGQGTQVTVSA | high polyreactivity |
| QVQLVESGGGLVQAGRSLRLSCAASGRTFPYYAMGWYRQAHGKEREFVAAISRRGASTYYADSVKGRFTISRDNAKNTVNLQMNSLKPEDTAVYYCNAVYRCYYSGELDYWGQGTQVTVSS | high polyreactivity |
| QVQLVESGGGLVQAGRSLRLSCAASGRTFSVNAMGCYRQAPVKERELVAAISWDGGSTYYADSVKGRFTISRDNAKNTVYLQMISLKPEDTSVYDCNKDLYYAYDYWGQGSQVTVSS | low polyreactivity |
| QVQLVESGGGLVQAGRSLRLSCAASGSIFEYYAMGWSRQAPGKEWELVAAITESGGSTYYADSVKGRFHNFTRQCEEYRLFTDEQPETGRYRGLLLAADAESYQNDYALDYWGQGTQETVSS | low polyreactivity |
| QVQLVESGGGLVQAGRSLRLSCAASGSIFGWNAMGWYRQAPGKERELVAAINGGDRTNYADSVKGRFTISRDNAKNTVYLQMNSLNTEDTAVYYCGKDFYPTRPGWGGGEYNYWGQGTQVTVSS | low polyreactivity |
| QVQLVESGGGLVQAGRSLRLSCAASGSIFTHNAMGWYRQAPGKERELVASITSRGGITYYADSVKGRFTISRDNAKNTVYLQMNSLKPEDTAVYYCAADLYIYPYDYWGQGTQVTVSS | low polyreactivity |
| QVQLVESGGGLVQAGRSLRLSCAASGYIIYPNAMGWYRQAPGKERELVAAITSGGSTTYADSVKGRFTISRDNAKNTVYVQMNCLKPEDSAVYYCAARFVLWSRTYYSWGQGTQVTVSS | high polyreactivity |
| QVQLVESGGGLVQAGRSLRLSCASSGSTFRVYDMGWYRQAPGNERELVASISYSVGSTYYADSVKGRFTISRDNAKNTVYLQMITLKPEDTEVYFCAARPSYQPSSLARYDYWGQGTQVSVSS | low polyreactivity |
| QVQLVESGGGLVQAGRSLRLSCASSGSTIVNYAMGWYRQAPGKEMELVAAISRSGGRTYYADSVKGRFTISRDNAKNTVYLQMNSLKPEDTAVYYCARLLLSPEYGYWGQGTQVTVSS | high polyreactivity |
| QVQLVESGGGLVQAGRTLRLSCAASGFTFGRYAMGWYRQAPGKERELVAAISRNGGRTYYADSVKGRFTISRDNAMNTVYFQMNSLKPEDTAVYNCAADGYERKTAQYDYWGQGTQVTVSS | high polyreactivity |
| QVQLVESGGGLVQAGSSLRLSCAASGRTFGGYVMGWYRQAPGKERELVAAISSSAGSTYYADSVKGRFTISRDNAKNTVYLQMNSLKPEDTAVYYCAKRSYNPYDHYYRYQYGYWGQGTQVTVSS | high polyreactivity |
| QVQLVESGGGLVQAGVILRLSCAASGSTFSLYAMGWYRKPPGKERELVAAISWSDGSTYYADSVKGRFTISRDNAKITVYLQMNSLKAEDTAVSYFANASSFAYYRFGYWGQVTQVTVSS | low polyreactivity |
| QVQLVESGGGLVQAGVILRLSCAASGSTIGVNAMGWYRQPPAKERELVAAISLGGGRTYYADSVKGRFTISRDNAKNTVNLQMNCLKPEDTAVYYCNTDFGARMGYWGQGTQVTVSS | high polyreactivity |
| QVQLVESGGGLVQAGVRLRLSFAASGFTFRLYTMGWYRQAPGKERELVAAITYSGDSTYYADSVKGRFTISRDNAKNTVYLQMNSLKPEDTAVYYCAARKYYARYYWGQGTQVTVSS | high polyreactivity |
| QVQLVESGGGLVQAGVSLRLRCASSGSIFRRNVMGWYRQAPGKERELVAAISWSGGRTYYADSVKGRFTISRDNAKNTVYLQMNSLKPEDTAVYYCAAENGYYAYDYWGQGTQVTVSS | high polyreactivity |
| QVQLVESGGGLVQAGVSLRLSCAAAGITFGDYSMGWYRQEPGKEMELVAGIYWSGDGTSYADSVKGRFTISRDNAKNTVYLQMYRLKPEDTAVYYFAAYWYYYLMDYWGQGTQVSVSS | low polyreactivity |

Source: the nanobody polyreactivity screen of Harvey et al. (2022)
